The values below come from the RNAGym collection of RNA variant scans (doi:10.7554/elife.90254).

B1: OR4K15 (parent)
chain: GUUAACGGUCAUAGGCCAUGGAAACUAGGAGCACCAUUUCGCUGCCAGUGAAGAAAUGAACAAAGAAAAUCUGGGCCAGGCAGGCAUCAAAAGAAAUAGUCUUGCGCUCAACCAGAAAGUCUGUAAUCAUUUUAAGGGUA

Variants of B1 are the subject of this series. The series is described as follows: self-cleavage, relative activity (ratio to wild type); higher = more cleavage; in vitro, sequencing; the parent is a self-cleaving ribozyme.
Take A59G A69G: the self-cleavage is 1.26.
C45U A60G: the self-cleavage came out at 1.29.
In the case of C81A G104A, the self-cleavage was 0.67.
In the case of G104U, the self-cleavage came to 0.02.
On to G14U A22G, for which the self-cleavage was 1.12.
As for U72A A78U, the self-cleavage came to 0.15.
For the variant G48A U130C, the self-cleavage was 0.82.
The result for A11G U102C reads 1.41; that for A13G A68G, 0.65; that for A60G C77U, 2.13.
As for U9G U100C, the self-cleavage came to 1.91.
Turning to G65C A111G, the self-cleavage was found to be 0.01.
Consider G14U A24G, for which the self-cleavage is 1.23.
As to A5G A24G, the self-cleavage was found to be 1.14.
As for U57C U102G, the self-cleavage is 0.29.
The result for A59U A89G reads 1.48; that for A60G A78C, 0.17; that for A98G U120C, 0.23.
Regarding C16G A54G, the self-cleavage amounted to 0.89.
On to U12A A96G, for which the self-cleavage is 1.43.
As for U87C A94G, the figure is 1.04; as for U37G A91G, 1.82.
As for G83A G93U, the figure is 2.03; as for U39C U108C, 0.02.
As to A13G C71U, the self-cleavage is 0.46.
On to C61A A91C, for which the self-cleavage is 2.41.
For the variant A89C A126U, the self-cleavage is 0.86.
A92G A125U: the self-cleavage was 1.59.
The result for A94G U102C reads 1.87; that for A33G U70C, 0.22; that for A67G A116C, 0.26.
Consider A60G A110C, for which the self-cleavage came to 0.4.
As to A36G G79A, the self-cleavage was 0.1.
On to A56U A126G, for which the self-cleavage worked out at 1.34.
Consider A117G U130A, for which the self-cleavage worked out at 0.26.
As for A51G U130A, the figure is 1.63.
The result for A47U A54G reads 0.67; that for G73A A116U, 0.03; that for C6A A66G, 1.23.
As for A30G G137A, the figure is 1.06.
For A82U A95G, the self-cleavage was determined as 0.51.
Consider A118G U133C, for which the self-cleavage was 1.23.
The result for U37A U108C reads 0; that for U12A A67G, 1.56.
Turning to A64U A117U, the self-cleavage was determined as 1.07.
Regarding A23G G136A, the self-cleavage was found to be 1.39.
C76G: the self-cleavage worked out at 0.16.
The result for U57C G75C reads 0.17; that for A11U G58A, 0.75; that for A110G U124A, 0.09.
The result for A4G G14A reads 1.05.
Regarding G41A A66G, the self-cleavage came to 1.74.
The result for A82G C128U reads 0.33; that for A62G U127C, 0.38; that for A33G U72A, 0.12.
As for A96U A114G, the figure is 0.85; as for A33C U38C, 1.53.
As to A27G U103C, the self-cleavage came out at 0.76.
G48A A126G: the self-cleavage turned out to be 1.15.
As for A18G A91G, the self-cleavage is 1.41.
For the variant A22U A63U, the self-cleavage was determined as 2.2.
For G7A A52G, the self-cleavage was found to be 1.25.
The result for A111G C112G reads 0; that for A117G U127A, 2.7; that for C85U A116U, 0.17.
U87A A125G: the self-cleavage came out at 0.68.
Take U39A U108C: the self-cleavage is 0.02.
As for A54U A78U, the figure is 0.29; as for A67G G104A, 0.08.
As to A117U U130C, the self-cleavage was 1.05.
Regarding A30G U39C, the self-cleavage is 1.05.
Regarding A59U A117U, the self-cleavage amounted to 0.89.
As to U103C A134U, the self-cleavage was 0.78.
Consider A96G A134G, for which the self-cleavage is 1.81.
As for U26A G44C, the self-cleavage turned out to be 0.71.
Consider U26A A92G, for which the self-cleavage amounted to 0.89.
Turning to U2C G73A, the self-cleavage is 0.22.
Turning to U38C A60C, the self-cleavage stood at 2.1.
In the case of A60G G74U, the self-cleavage is 0.18.
The result for A78G C81A reads 0.1; that for A92G U130C, 0.3.
The result for A13G A116U reads 0.41; that for A30G A117U, 0.99.
The result for A4G A24C reads 1.03.
In the case of A62G A98U, the self-cleavage was found to be 1.39.
With A4G U70A, the self-cleavage is 1.14.
The result for A33C A126G reads 1.8; that for G1U A52G, 1.83; that for U39C U43C, 1.57.
As for A51U A62G, the figure is 1.48.
On to U37A A96G, for which the self-cleavage was 2.31.
For the variant A52U C101U, the self-cleavage was found to be 0.19.
With C113A A140G, the self-cleavage is 0.
Turning to U2G A62G, the self-cleavage was 0.65.
Consider U26C U100C, for which the self-cleavage was 1.45.
For U3C A33G, the self-cleavage is 0.79.
The result for G14A U70C reads 0.96; that for C81U A96G, 0.43.
As for A22U U43C, the figure is 1.81; as for A89U A129G, 1.59.
A30G A33G: the self-cleavage is 1.17.
Turning to G79A A129C, the self-cleavage came to 0.05.
As for A11U A90G, the self-cleavage is 0.51.
In the case of A56U A110U, the self-cleavage amounted to 1.
As for A64U A82G, the figure is 0.71.
Take U12G A33G: the self-cleavage was found to be 1.04.
With U49C U103A, the self-cleavage came out at 0.71.
Turning to A90G A117G, the self-cleavage turned out to be 0.83.
In the case of A51G A98G, the self-cleavage amounted to 0.29.
For U122C C128A, the self-cleavage is 0.38.
On to A23G G53A, for which the self-cleavage worked out at 1.7.
The result for A68G A116U reads 0.21; that for U38C G137A, 0.9.
The result for U127C U132A reads 0.62.
Take A23U C76A: the self-cleavage turned out to be 0.23.
C16U A129C: the self-cleavage worked out at 1.3.
As for A63G A66G, the figure is 1.7.
C40A A89G: the self-cleavage was found to be 1.44.
For U38C U127C, the self-cleavage is 0.66.
As for U19C U72C, the self-cleavage was determined as 0.25.
As to U49A A116G, the self-cleavage was 0.3.
With U3C A47G, the self-cleavage is 1.39.
Turning to A30U A129U, the self-cleavage turned out to be 0.63.
The result for U9A A33G reads 0.9; that for U39C G136A, 2.38.
For A30G A95U, the self-cleavage stood at 1.42.
Regarding A30G A95C, the self-cleavage was determined as 1.26.
Consider A30U U70C, for which the self-cleavage came to 0.71.
On to G104U A117G, for which the self-cleavage is 0.02.
A82G U108C: the self-cleavage turned out to be 0.02.
The result for G7U U103C reads 0.65; that for C85G A96G, 1.02; that for A91C A117G, 2.03.
As to U108C C121U, the self-cleavage was determined as 0.02.
With A60U G138A, the self-cleavage worked out at 1.37.
In the case of A69G A114U, the self-cleavage was 0.1.
Take U3C U43A: the self-cleavage worked out at 1.31.
Regarding A52G C121A, the self-cleavage came out at 2.07.
As for G29A A56G, the self-cleavage turned out to be 1.5.
As for A91G A129G, the self-cleavage came to 0.58.
For the variant A82G U100A, the self-cleavage came to 0.25.
As for A11U U132C, the figure is 0.89; as for A22C U127C, 1.48; as for A94U A117G, 1.95.
As for U72C U133C, the figure is 0.13; as for A24G A47G, 0.73; as for A55G U72A, 0.19.
Take C76U A96C: the self-cleavage came to 0.1.
As to A68G, the self-cleavage was determined as 0.98.
A68C: the self-cleavage worked out at 1.73.
As for U2C U120A, the self-cleavage is 1.03.
Regarding U39C A94G, the self-cleavage worked out at 1.34.
As for G29A U72C, the self-cleavage came to 0.27.
For A66G A68G, the self-cleavage was found to be 0.62.
On to U9A U37C, for which the self-cleavage turned out to be 1.63.
A62C U72C: the self-cleavage was 0.26.
For the variant A96G U132A, the self-cleavage was determined as 1.37.
As to U97C U108C, the self-cleavage is 0.04.
As for A24G C109A, the self-cleavage was 0.3.
Regarding U49C A114G, the self-cleavage was 0.42.
In the case of U9A U87C, the self-cleavage is 0.85.
As for A66G A78G, the figure is 0.31; as for A33G U120G, 0.65.
Consider A54G, for which the self-cleavage is 1.06.
Consider A30G A96G, for which the self-cleavage came to 1.25.
As to A11G A118U, the self-cleavage was found to be 0.2.
On to U49A U131C, for which the self-cleavage was 1.01.
